Source: paper PMC8835488, “Production and Biochemical Characterization of Dimeric Recombinant Gremlin-1” (International Journal of Molecular Sciences, 2022)

What was measured:
[1] = target: the molecule itself; experiment: non-reducing SDS-PAGE with anti-gremlin Western blot; IMAC-purified gremlin (250 mM imidazole eluate), SDS-PAGE without DTT; shows disulfide-bound dimer beside monomer
[2] = target: the molecule itself; experiment: non-reducing SDS-PAGE; bought 10xHis-tagged gremlin from murine myeloma cells, several batches (Figure S1); SDS-PAGE under reducing or non-reducing conditions

Row | Protein | dimer vs. monomer ratio [1] [%] | stoichiometry N [1] | stoichiometry N [2]
1 | recombinant rat gremlin-1 with C-terminal hexa-histidine tag (pcDNA3-Gremlin-1-HisTag) (natural protein, UniProt O35793 25-184, looked up, N-glycosylated in part (glycosylated ~30–45%, non-glycosylated ~70–55% of the protein), gremlin-1, rat; secreted protein; the 0.8–0.9 M NaCl heparin-sepharose fractions hold the dimer; also called IMAC-purified gremlin; IMAC gremlin; source: HEK293T, transiently transfected, secreted into the supernatant; purified by IMAC (Ni2+ column), when indicated followed by heparin-sepharose chromatography; not shown: His6, C-terminal, kept) KKKGSQGAIPPPDKAQHNDSEQTQSPPQPGSRTRGRGQGRGTAMPGEEVLESSQEALHVTERKYLKRDWCKTQPLKQTIHEEGCNSRTIINRFCYGQCNSFYIPRHIRKEEGSFQSCSFCKPKKFTTMMVTLNCPELQPPTKKKRVTRVKQCRCISIDLD | ~20 | 2 | –
2 | 10xhis-tagged gremlin expressed in murine myeloma cells (recombinant human gremlin-1 purchased from R&D) (natural protein, UniProt O60565 25-184, looked up, gremlin-1, human; No catalogue number is printed; source: bought: R&D; expressed in murine myeloma cells, IMAC-purified) KKKGSQGAIPPPDKAQHNDSEQTQSPQQPGSRNRGRGQGRGTAMPGEEVLESSQEALHVTERKYLKRDWCKTQPLKQTIHEEGCNSRTIINRFCYGQCNSFYIPRHIRKEEGSFQSCSFCKPKKFTTMMVTLNCPELQPPTKKKRVTRVKQCRCISIDLD | – | – | 2
